Assay results taken from publication PMC4485828 (Oncoimmunology, 2015).

Experiments:
[1] = target: the molecule itself; assay: SEC
[2] = SEC

B1: GD2xCD3-HDD bispecific antibody dimer (GD2xCD3 tsc-BsAb with the HNF1α dimerization domain at the C-terminus) (bispecific antibody)
chain: QVQLQQSGPELVKPGASVKISCKTSGYKFTEYTMHWVKQSHGKCLEWIGGINPNNGGTNYNQKFKGKATLTVDKSSSTAYMELRSLTSEDSAVYYCARDTTVPYAYWGQGTTVTVSSGGGGSGGGGSGGGGSDIELTQSPAIMSASPGEKVTMTCSASSSISYMHWYQQKPGTSPKRWIYDTSKLASSVPARFSGSGSGTSYSLTISSMEAEDAATYYCHQRSSYPLTFGCGTKLEIKRASTKGPGGGGSGGGGSGGGGSQVQLVQSGGGVVQPGRSLRLSCKASGYTFTRYTMHWVRQAPGKGLEWIGYINPSRGYTNYNQKFKDRFTISRDNSKNTAFLQMDSLRPEDTGVYFCARYYDDHYCLDYWGQGTPVTVSSGGGGSGGGGSGGGGSDIQMTQSPSSLSASVGDRVTITCSASSSVSYMNWYQQTPGKAPKRWIYDTSKLASGVPSRFSGSGSGTDYTFTISSLQPEDIATYYCQQWSSNPFTFGQGTKLQITRTPLGDTTHTSGMVSKLSQLQTELLAALLESGLSKEALIQALGEGSGGAP
[1]
  stoichiometry N: 2
[2]
  percent dimeric (purity by HPLC-SEC): 97%
